Biological target: T1, human Claudin-1 (CLDN1) on EGI-1 cholangiocarcinoma cells (human, UniProt O95832 1-211)
T1 construct: whole, on cells; Endogenously expressed on human CCA cell lines; also called non-junctional CLDN1
T1 sequence (looked up): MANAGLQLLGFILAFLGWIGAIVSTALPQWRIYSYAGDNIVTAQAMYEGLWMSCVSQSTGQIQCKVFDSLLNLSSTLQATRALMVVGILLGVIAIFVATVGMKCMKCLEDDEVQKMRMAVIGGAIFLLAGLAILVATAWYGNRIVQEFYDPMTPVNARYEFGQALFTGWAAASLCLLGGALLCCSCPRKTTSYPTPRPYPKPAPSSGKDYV
Experiment: flow cytometry on EGI-1 cells, 10 µg/ml antibody, Alexa647 secondary, delta-MFI against isotype control
Experimental: A first-line chemotherapy treatment for advanced CCA is cisplatin plus gemcitabine (Borbath et al., 48(7) Eur J Cancer 990-996 (May 2012)). To investigate the expression of CLDN1 upon treatment with cisplatin and gemcitabine, 1.5×10⁵ CCA EGI-1 cells were treated with cisplatin (100 nM) and gemcitabine (10 nM) for 24 hours. Cells were then collected, and CLDN1 expression was assessed by flow cytometry and Western Blot using CLDN1 specific Abs.
For flow cytometry, cells were incubated with the anti-CLDN1 mAb H3L3 or the isotype control mAb at a concentration of 10 μg/ml in triplicates per condition. Following incubation with the primary antibody for 1 hour, cells were washed and incubated with human Alexa647-conjugated secondary antibody at 4° C. for 45 minutes. Cells were subsequently washed and fixed with 2% paraformaldehyde (PFA). Data were acquired using Cytoflex B2R2V0 (Beckman Coulter) and analyzed using CytExpert 2.1 and FlowJo v10 (Beckman Coulter). CLDN1 expression was calculated as the difference of the mean fluorescence intensities of cells stained with anti-CLDN1 mAb H3L3 and isotype control mAb. The experiment was independently repeated three times.

B1: anti-CLDN1 mAb H3L3 (antibody, human IgG1, kappa, V domains shown)
VH: QVQLVESGGGVVQPGRSLRLSCLGSGFSFSSYGMNWVRQAPGKGLEWVASISPSGSYFYYADSVKGRFTISRDNSKNTLYLQMTSLRAEDTAIYYCARLPGFNPPFDHWGQGTLVTVSS
VL: DIQMTQSPSSLSASVGDRVTITCKASQNVGGNVDWYQWKPGKAPKLLIYGASNRYTGVPDRFRGSGSGTDFTLTISSLQPEDVATYYCLQYKNNPWTFGGGTKVEIKR
notes: also called CLDN1-specific mAb H3L3; anti-CLDN1 H3L3 antibody
B1: binds.
